Target: MMP13-undigested human type II collagen (UniProt P02458)
Sequence (P02458 182-1241): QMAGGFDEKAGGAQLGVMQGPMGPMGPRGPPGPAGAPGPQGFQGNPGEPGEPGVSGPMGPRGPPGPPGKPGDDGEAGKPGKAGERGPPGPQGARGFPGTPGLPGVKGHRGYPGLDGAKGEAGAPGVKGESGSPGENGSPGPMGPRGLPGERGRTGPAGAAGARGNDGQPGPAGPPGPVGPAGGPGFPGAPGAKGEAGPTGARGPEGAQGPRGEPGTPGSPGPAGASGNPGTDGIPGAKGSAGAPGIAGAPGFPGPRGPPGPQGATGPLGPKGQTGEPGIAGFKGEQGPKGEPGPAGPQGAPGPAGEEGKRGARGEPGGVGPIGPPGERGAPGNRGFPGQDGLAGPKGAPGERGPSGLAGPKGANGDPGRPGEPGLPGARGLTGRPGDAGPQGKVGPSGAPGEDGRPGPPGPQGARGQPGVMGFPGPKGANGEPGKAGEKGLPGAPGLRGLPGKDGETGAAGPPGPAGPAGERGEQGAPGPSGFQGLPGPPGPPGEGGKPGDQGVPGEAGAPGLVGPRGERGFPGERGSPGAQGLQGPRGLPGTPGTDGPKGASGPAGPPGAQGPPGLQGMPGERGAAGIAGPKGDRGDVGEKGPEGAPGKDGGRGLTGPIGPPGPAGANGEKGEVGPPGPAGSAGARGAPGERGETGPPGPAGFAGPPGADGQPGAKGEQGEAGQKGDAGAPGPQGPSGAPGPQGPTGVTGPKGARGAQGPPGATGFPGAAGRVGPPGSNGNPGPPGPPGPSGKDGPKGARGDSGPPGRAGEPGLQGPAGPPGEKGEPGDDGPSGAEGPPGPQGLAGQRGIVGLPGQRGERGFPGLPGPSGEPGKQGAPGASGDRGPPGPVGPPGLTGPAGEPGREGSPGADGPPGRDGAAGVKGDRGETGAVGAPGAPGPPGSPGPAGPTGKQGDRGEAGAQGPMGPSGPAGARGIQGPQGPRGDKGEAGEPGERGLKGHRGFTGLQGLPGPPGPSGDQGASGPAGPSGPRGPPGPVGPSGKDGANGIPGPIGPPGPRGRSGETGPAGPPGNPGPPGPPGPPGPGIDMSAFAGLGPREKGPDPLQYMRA

Q: For activated human MMP13, which “amount of the collagen neoepitope in the enzyme-reaction buffer (sandwich ELISA of Example 4)” value is on record?
A: the measurements of the neoepitope increased in a manner dependent on the dose of MMP13 added

Source: patent US20120237948
